Source: IntAct's records for PubMed 30774623

Target: agrl1_mouse Adgrl1 (UniProt Q80TR1)
Chain of UniProt Q80TR1 (Q80TR1 whole entry): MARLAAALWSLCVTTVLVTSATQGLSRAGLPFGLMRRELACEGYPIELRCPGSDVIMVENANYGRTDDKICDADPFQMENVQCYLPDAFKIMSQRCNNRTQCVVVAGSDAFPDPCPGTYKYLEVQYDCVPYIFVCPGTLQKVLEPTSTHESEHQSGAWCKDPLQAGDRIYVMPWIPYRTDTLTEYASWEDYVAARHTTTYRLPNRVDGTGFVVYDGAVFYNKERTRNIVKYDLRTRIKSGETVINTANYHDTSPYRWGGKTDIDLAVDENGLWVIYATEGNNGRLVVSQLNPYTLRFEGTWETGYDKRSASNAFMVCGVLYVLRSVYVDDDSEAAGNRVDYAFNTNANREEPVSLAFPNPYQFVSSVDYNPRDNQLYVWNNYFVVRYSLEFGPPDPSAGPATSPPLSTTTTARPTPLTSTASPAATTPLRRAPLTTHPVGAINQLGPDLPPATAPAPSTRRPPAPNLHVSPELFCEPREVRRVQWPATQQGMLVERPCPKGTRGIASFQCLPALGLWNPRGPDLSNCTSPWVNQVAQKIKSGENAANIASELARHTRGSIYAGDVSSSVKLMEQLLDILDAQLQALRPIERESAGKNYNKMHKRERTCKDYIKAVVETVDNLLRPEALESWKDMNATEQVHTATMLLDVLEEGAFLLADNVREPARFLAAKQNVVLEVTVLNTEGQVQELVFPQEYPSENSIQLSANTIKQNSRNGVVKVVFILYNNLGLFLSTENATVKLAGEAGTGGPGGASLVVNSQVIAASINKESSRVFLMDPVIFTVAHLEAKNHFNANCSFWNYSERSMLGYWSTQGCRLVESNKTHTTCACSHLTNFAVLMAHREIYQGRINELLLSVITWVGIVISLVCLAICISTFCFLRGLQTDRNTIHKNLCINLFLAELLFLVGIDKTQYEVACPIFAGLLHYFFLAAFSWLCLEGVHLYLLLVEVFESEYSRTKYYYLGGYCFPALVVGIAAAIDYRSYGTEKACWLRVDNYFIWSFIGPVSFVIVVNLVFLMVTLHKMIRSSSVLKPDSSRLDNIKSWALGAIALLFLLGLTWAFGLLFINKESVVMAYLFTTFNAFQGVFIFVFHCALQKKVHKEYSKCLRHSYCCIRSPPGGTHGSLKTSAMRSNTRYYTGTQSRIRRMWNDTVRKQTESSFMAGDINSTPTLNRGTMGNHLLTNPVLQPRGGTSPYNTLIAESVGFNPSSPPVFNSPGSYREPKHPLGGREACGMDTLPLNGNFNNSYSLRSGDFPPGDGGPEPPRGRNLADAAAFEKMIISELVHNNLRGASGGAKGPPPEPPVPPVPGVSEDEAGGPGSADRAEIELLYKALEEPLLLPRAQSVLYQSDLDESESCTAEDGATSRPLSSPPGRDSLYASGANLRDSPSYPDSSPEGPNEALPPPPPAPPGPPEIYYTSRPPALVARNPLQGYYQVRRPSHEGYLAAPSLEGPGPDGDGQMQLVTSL

effect of a mutation on the interaction: with no effect
Substance: Teneurin-1 (Mus musculus), Q9WTS4 R37K
